The text below walks through data of patent publication US20100310509A1 (published 2010).

Assay [1] addresses T1, soluble human LIFR (leukemia inhibitory factor receptor) (human, UniProt P42702 45-833).
T1 construct: extracellular domain; Bought; also called soluble LIFR
T1 sequence (looked up): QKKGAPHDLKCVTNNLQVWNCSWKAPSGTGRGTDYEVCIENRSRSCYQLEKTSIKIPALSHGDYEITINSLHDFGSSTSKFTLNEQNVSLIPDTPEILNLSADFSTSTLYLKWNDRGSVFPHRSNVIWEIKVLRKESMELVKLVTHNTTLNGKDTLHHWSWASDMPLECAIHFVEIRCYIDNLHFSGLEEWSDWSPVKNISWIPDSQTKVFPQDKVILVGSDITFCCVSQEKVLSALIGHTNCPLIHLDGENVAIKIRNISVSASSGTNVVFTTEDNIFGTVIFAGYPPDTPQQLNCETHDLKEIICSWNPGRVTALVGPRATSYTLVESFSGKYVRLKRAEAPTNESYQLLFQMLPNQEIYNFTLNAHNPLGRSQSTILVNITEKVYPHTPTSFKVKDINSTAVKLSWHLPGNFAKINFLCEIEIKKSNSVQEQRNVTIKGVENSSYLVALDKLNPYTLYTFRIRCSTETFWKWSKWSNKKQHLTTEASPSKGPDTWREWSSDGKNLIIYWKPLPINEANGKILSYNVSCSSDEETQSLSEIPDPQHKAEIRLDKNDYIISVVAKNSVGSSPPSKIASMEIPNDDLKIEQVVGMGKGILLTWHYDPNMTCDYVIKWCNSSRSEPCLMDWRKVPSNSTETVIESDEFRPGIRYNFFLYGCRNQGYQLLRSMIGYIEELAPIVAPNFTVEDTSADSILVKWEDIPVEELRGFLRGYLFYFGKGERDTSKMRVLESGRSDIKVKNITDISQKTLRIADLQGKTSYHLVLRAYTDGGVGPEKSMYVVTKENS
In words: SPR, ratio of KD values. On the procedure:
A concentration series of soluble LIFR (# 249-LR-050/CF, R&D Systems, Minneapolis, Minn.), soluble OSMR (# 4389-OR-50, R&D Systems, Minneapolis, Minn.) or soluble gp130 (# 228-GP-050/CF, R&D Systems, Minneapolis, Minn.) in running buffer (10 mM HEPES pH 7.4, 150 mM NaCl, 3.4 mM EDTA, 0.005% Tween-20) were injected over both channels at a flow rate of 25 μl/min. Following a dissociation period of 3 minutes, the surfaces were regenerated by injecting 10 mM NaOH for 30 seconds. Rate constants for association (kₐ) and dissociation (kd) rates were derived by global analysis of the response curves fit to a 1:1 kinetic model (Equations 1 and 2) using QDat software (BioLogic Software, Ltd. Knoxville Tenn. and Nomadics, Inc. Stillwater, Okla.) using 1:1 stoichiometry.
Reducing the size of the BC loop improves OSM's affinity towards LIFR and OSMR. […] To directly measure the binding kinetics of these ligand-receptor interactions, surface plasmon resonance (SPR) was used. The cytokines (LIF, OSM-WT, OSM-M1 and OSM-M2) were immobilized on the sensor chip surface, while recombinant soluble receptors were used as the analytes (FIG. 11).
(SPR reads the build-up and loss of mass on a sensor chip optically.)

Assay [2] deals with T2, soluble human OSMR (Oncostatin M receptor) (human, UniProt Q99650 28-740).
T2 construct: extracellular domain; Bought; also called soluble OSMR
T2 sequence (looked up): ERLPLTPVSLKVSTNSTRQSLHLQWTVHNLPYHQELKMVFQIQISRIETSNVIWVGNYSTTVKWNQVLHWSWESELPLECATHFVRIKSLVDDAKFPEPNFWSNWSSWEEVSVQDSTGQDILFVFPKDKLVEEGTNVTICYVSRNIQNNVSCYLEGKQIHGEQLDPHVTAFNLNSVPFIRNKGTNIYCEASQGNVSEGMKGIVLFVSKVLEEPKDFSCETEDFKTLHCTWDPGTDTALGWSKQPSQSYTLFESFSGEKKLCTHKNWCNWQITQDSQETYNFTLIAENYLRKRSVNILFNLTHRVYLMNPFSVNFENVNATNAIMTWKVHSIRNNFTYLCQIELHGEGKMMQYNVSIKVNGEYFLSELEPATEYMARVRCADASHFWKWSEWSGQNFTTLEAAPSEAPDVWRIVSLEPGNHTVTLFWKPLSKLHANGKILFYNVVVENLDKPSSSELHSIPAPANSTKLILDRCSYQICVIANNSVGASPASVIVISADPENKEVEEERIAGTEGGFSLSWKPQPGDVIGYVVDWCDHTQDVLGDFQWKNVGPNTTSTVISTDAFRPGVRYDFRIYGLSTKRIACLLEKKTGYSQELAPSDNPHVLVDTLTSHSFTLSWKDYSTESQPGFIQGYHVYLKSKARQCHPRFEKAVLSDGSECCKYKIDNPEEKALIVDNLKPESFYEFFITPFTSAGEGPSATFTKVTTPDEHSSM
In words: SPR (SensiQ), OSM-WT immobilised, soluble OSMR injected (150nM, 100nM, 50nM, 25nM, 10nM, 5nM). On the procedure:
Surface Plasmon Resonance (SPR): Kinetic parameters of the interactions between receptor domains and the cytokines LIF, OSM-WT, OSM-M1 or OSM-M2 were analyzed by SPR using the SENSIQ® system (ICX Technologies, Oklahoma City, Okla.) as described by the manufacturer protocol. Briefly, a carboxyl sensor with two channels was installed in SENSIQ® and allowed to thermally equilibrate for about 15 minutes. The channels were initially cleaned with a 3 minute injection of 0.1 M HCl. An activation solution of 2 mM 1-Ethyl-3-[3-dimethylaminopropyl]carbodiimide hydrochloride (EDC) and 0.5 mM N-hydroxysulfo succinimide (NHS) was prepared in deionized water immediately before injection. Activation solution was injected over both channels for approximately 3 minutes followed by a 10 minute injection of 50 μg/mL cytokine (LIF, OSM-WT, OSM-M1 or OSM-M2) in 10 mM acetate buffer, pH 5.0, over channel 1. […] Unreacted NHS esters were capped with a 3 minute injection of 1 M ethanolamine, pH 8.0, over both channels. […] A concentration series of soluble LIFR (# 249-LR-050/CF, R&D Systems, Minneapolis, Minn.), soluble OSMR (# 4389-OR-50, R&D Systems, Minneapolis, Minn.) or soluble gp130 (# 228-GP-050/CF, R&D Systems, Minneapolis, Minn.) in running buffer (10 mM HEPES pH 7.4, 150 mM NaCl, 3.4 mM EDTA, 0.005% Tween-20) were injected over both channels at a flow rate of 25 μl/min. […]

B1: human leukemia inhibitory factor (LIF) (ligand)
chain: not shown
notes: Purified recombinant protein; also called hLIF
For the molecule B1, the “fold higher affinity than towards gp130” value in assay [1] was 23 fold.

B2: OSM-WT ('AGA' modified human Oncostatin M, referred to as wild-type OSM) (ligand)
chain: AAIGSCSKEYRVLLGQLQKQTDLMQDTSRLLDPYIRIQGLDVPKLREHCRERPGAFPSEETLRGLGRRGFLQTLNATLGCVLHRLADLEQRLPKAQDLERSGLNIEDLEKLQMARPNILGLRNNIYCMAQLLDNSDTAEPTKAGAGASQPPTPTPASDAFQRKLEGCRFLHGYHRFMHSVGRVFSKWGESPN
notes: also called hOSM with AGA modification; not shown: N-terminal FLAG tag left after thrombin removal of GST
Regarding B2, the binding result in assay [2] was “no binding (tested: 150 nM)”.
